From patent US20250092124A1 (YUNNAN BAIYAO GROUP, published 2025) come the findings set out here.

Where two headings read alike, the source gives them in different places.

By EC50 is commonly meant the concentration needed to bring the measured effect to its halfway point. Usually Kd stands for the constant that tells how readily two partners part at equilibrium. As usually defined, the koff is the first-order rate constant of dissociation. A word on the kon: it is a measure of how fast the partners come together. The IC50 is the point on the concentration scale where inhibition reaches its midpoint.

In assay [1] the target is T1, fusion protein comprising the extracellular region of human GDF15 protein and human IgG1-FC (human, UniProt Q99988 197-308, limits assumed).
T1 construct: extracellular domain
T1 sequence (looked up): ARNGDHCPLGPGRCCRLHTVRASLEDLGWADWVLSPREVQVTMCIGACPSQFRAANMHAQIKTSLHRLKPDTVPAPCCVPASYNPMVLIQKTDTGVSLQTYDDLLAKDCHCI
Description: ELISA, human GDF15-hIgG1 Fc coated, HRP anti-mouse IgG. Here is the method:
(§1) A fusion protein comprising the extracellular region of human GDF15 protein (Genbank accession number NM_004864.3) and human IgG1-FC (Genbank accession number CAC20454.1) was diluted to 1 ng/ml with coating solution, followed by adding to ELISA plate at 50 μl/well and incubating at 4° C. overnight. The solution in the wells was discarded and the plate was washed 3 times with washing solution, each time for 3-5 minutes, and dried by tapping. 200 μl of blocking solution was added to each well and incubated at 4° C. overnight. The plate was washed 3 times with washing solution, and the coated plate may be stored at −20° C. or 4° C. for future use.
(§2) The antibodies to be tested (purified antibodies from hybridoma, see Table 1), positive control antibody AV380-mIgG1 (its sequence is from Aveo Oncology; see SEQ ID NO. 1 and SEQ ID NO. 2 for its heavy chain and light chain variable regions, respectively; see SEQ ID NO. 3 and SEQ ID NO. 4 for its heavy chain and light chain constant regions, respectively) and blank control (PBS) were added to the wells. […] The wells were incubated at 37° C. for 1 hour, washed, and dried via tapping. Then the enzyme-labeled secondary antibody, horseradish peroxidase-labeled goat anti-mouse IgG (SIGMA, catalog number A9044-2 ml) was added to each well, at a dilution of 1:10000, 100 μl/well. The wells were incubated at 37° C. for 2 hours, washed, and dried via tapping. 100 μl of freshly prepared developing solution TMB was added to each well and incubated at 37° C. for 30 minutes.
(§3) 2 mol/L H₂SO₄ was added to terminate the reaction, and the OD values were read on enzyme-linked immunosorbent reader. The results were shown in Table 1-1, Table 1-2 and FIGS. 1-1 and 1-2.
(In general: In an ELISA, binding on a coated surface is turned into a signal by an enzyme label.)

Assay [2] deals with T2, fusion protein comprising the extracellular region of monkey GDF15 protein and human IgG1-FC (monkey (cyno); human, UniProt G7PWZ3 197-308, limits assumed).
T2 construct: extracellular domain; also called cynoGDF15
T2 sequence (looked up): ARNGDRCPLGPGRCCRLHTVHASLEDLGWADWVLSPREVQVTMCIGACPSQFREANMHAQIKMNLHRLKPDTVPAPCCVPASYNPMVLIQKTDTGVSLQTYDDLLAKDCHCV
Description: ELISA, monkey GDF15-hIgG1 Fc coated, HRP anti-mouse IgG. Here is the method: as §2
(§4) The experiment was performed as detailed in Example 2, except that the fusion protein in Example 2 was replaced with a fusion protein comprising the extracellular region of monkey GDF15 protein (Genbank accession number EHH29815.1) and human IgG1-FC (Genbank accession number CAC20454.1). The results were shown in Table 2-1, Table 2-2 and FIGS. 2-1 and 2-2.

Assay [3] has as its target T2, fusion protein comprising the …. Described as above. As for the experimental part: as §2, §4
The source holds these as a separate data set.

Assay [4] concerns the target T3, GDF15-HIS (ACROBiosystems, CAT #: GD5-H5149) (human, UniProt Q99988 197-308).
T3 construct: Bought protein; also called GDF15 (ACROBiosystems, GD5-H5149); human GDF15; not shown: His tag
T3 sequence (looked up): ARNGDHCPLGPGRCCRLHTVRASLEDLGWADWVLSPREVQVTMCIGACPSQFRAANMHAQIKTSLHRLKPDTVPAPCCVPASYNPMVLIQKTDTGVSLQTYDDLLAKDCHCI
Description: BLI (ForteBio Octet), antibody immobilised, GDF15 200-6.25 nM. Background: Biolayer interferometry detects binding as a change in optical thickness at a sensor tip.

In assay [5] the target is T1, fusion protein comprising the …. The experiment in a line: ELISA, human GDF15-hIgG1 Fc coated, HRP anti-mouse IgG. Here is the method: as §1, §2, §3
This is another data set of the same source.

The target in assay [6] is T4, GDF15-mFC protein (human; mouse, UniProt Q99988 197-308).
T4 construct: extracellular domain;domain: IgG2a-FC; also called GDF15-mFc fusion protein
T4 sequence (looked up): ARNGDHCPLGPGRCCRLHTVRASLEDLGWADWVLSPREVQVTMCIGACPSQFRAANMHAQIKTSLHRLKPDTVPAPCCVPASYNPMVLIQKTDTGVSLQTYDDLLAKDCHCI
Description: blocking ELISA, GFRAL-hIgG1 Fc coated (competitor), GDF15-mFC 20 ng/well mixed with antibody. Here is the method:
as §1, with “of GFRAL” for “of human GDF15”, “number NM_207410.2)” for “number NM_004864.3)”, “[…]” for “1 ng/ml”, “dried via” for “dried by”, “well followed by incubating” for “well and incubated”
(§5) The antibodies to be tested, positive control antibody AV380-mIgG1 and blank control (PBS) were added to the wells. […] At the same time, GDF15-mFC protein (GDF15: Genbank accession number NM_004864.3; mFC: Genbank accession number AAH31470.1) was added at 20 ng/well and mixed with the antibodies to be tested. The wells were incubated at 37° C. for 1 hour, washed, and dried via tapping. Then the enzyme-labeled secondary antibody, horseradish peroxidase-labeled goat anti-mouse IgG (SIGMA, catalog number A9044-2 ml) was added to each well, at a dilution of 1:10000, 50-100 μl/well. The wells were incubated at 37° C. for 2 hours, washed, and dried via tapping. 100 μl of freshly prepared developing solution TMB was added to each well and incubated at 37° C. for 30 minutes. 2 mol/L H₂SO₄ was added to terminate the reaction, and the OD value was obtained on an enzyme-linked immunosorbent reader.

The target of assay [7] is T4, GDF15-mFC protein. The assay is described as above. As for the experimental part: as §1, with “of GFRAL” for “of human GDF15”, “number NM_207410.2)” for “number NM_004864.3)”, “[…]” for “1 ng/ml”, “dried via” for “dried by”, “well followed by incubating” for “well and incubated”
as §5
The source holds these as a separate data set.

B1: AV380-mIgG1 (antibody)
heavy: EVLLQQSGPELVKPGASVKIPCKASGYTFTDYNMDWVKQSHGKSLEWIGQINPNNGGIFFNQKFKGKATLTVDKSSNTAFMEVRSLTSEDTAVYYCAREAITTVGAMDYWGQGTSVTVSSAKTTPPSVYPLAPGSAAQTNSMVTLGCLVKGYFPEPVTVTWNSGSLSSGVHTFPAVLQSDLYTLSSSVTVPSSTWPSETVTCNVAHPASSTKVDKKIVPRDCGCKPCICTVPEVSSVFIFPPKPKDVLTITLTPKVTCVVVDISKDDPEVQFSWFVDDVEVHTAQTQPREEQFNSTFRSVSELPIMHQDWLNGKEFKCRVNSAAFPAPIEKTISKTKGRPKAPQVYTIPPPKEQMAKDKVSLTCMITDFFPEDITVEWQWNGQPAENYKNTQPIMDTDGSYFVYSKLNVQKSNWEAGNTFTCSVLHEGLHNHHTEKSLSHSPGK
light: DIQMTQSPASLSASVGETVTITCRTSENLHNYLAWYQQKQGKSPQLLVYDAKTLADGVPSRFSGSGSGTQYSLKINSLQPEDFGSYYCQHFWSSPYTFGGGTKLEIKRADAAPTVSIFPPSSEQLTSGGASVVCFLNNFYPKDINVKWKIDGSERQNGVLNSWTDQDSKDSTYSMSSTLTLTKDEYERHNSYTCEATHKTSTSPIVKSFNRNEC
notes: also called positive control antibody AV380-mIgG1
On to B1, for which the half-maximal effective concentration (EC50) in assay [1] was 0.0313 µg/mL; in assay [2], 0.0146 µg/mL; in assay [3], 0.0258 µg/mL; in assay [5], 0.0296 µg/mL. Further, the Kd in assay [4] is 0.097 nM. The same molecule came in with a koff in assay [4] of 0.000117 s⁻¹. The molecule further had a kon in assay [4] of 1.2e+06 M⁻¹ s⁻¹. Moreover, the 50% inhibitory concentration (IC50) in the assay with GDF15-mFC protein [6] was 0.14 µg/mL; in the assay with GDF15-mFC protein [7] it was 0.198 µg/mL.
